Measured values from the RNAGym collection of RNA variant scans (doi:10.1093/molbev/msab373).

B1: Azoarcus group I ribozyme (parent)
chain: GUGCCUUGCGCCGGGAAACCACGCAAGGGAUGGUGUCAAAUUCGGCGAAACCUAAGCGCCCGCCCGGGCGUAUGGCAACGCCGAGCCAAGCUUCGGCGCCUGCGCCGAUGAAGGUGUAGAGACUAGACGGCACCCACCUAAGGCAAACGCUAUGGUGAAGGCAUAGUCCAGGGAGUGGCGAAAGUCACACAAACCGG

Variants of: B1
Assay: reverse-splicing fitness (ratio to wild type); higher = more active; in vitro selection; Mg2+ level not given
Summary of the method: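 An in vitro group I ribozyme library with randomized positions was T7-transcribed and gel-purified. In triplicate, 10 pmol RNA in EPPS pH 7.5 was reacted with 50 pmoles of a 30-nt RNA substrate for 1 h at 37 °C across several added MgCl2 levels (1–48 mM), then stopped with EDTA. Products were reverse transcribed from a substrate-complementary primer, PCR-amplified and sequenced (HiSeq 4000). Fitness is a variant's read proportion after selection over that before, normalised to wild type.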

Variant	reverse-splicing fitness
GUGCCUUGCGCCGGGAAACCACGCAAGGGAUGGUGUCAAAUUCGGCGAAACCUAAGCGCCCGCCCGGGCGUAUGGCAACGCUGAGCCAAGCUUCGGCGCCUGCGCCGAUGAAGGUGUAGGGACUAGACGGCACCCACCUAAGGCAAACGUUAUGGUGAAGGCAUAGUCCAGGGAGUGGCGAAAGUCACACAAACCGG [C82U A120G C150U]	0.0161
GUGCCUUGCGCCGGGAAACCACGCAAGGGAUGGUGUCAAAUUCGGCGAAACCUAAGCGCCCGCCCGGGCGUAUGGCAACGCUGAGCCAAGCUUCGGCGCCUGCGCCGAUGAAGGUGUAGGGACUAGACGGCACCCACCUAAGGCAAACGGUAUGGUGAAGGCAUAGUCUAGGGAGGGGCGAAAGUCACACAAACCGG [C82U A120G C150G C169U U176G]	0.00521
GUGCCUUGCGCCGGGAAACCACGCAAGGGAUGGUGUCAAAUUCGGCGAAACCUAAGCGCCCGCCCGGGCGUAUGGCAACGCUGAGCCAAGCUUCGGCGCCUGCGCCGAUGAAGGUGUAGGGACUAGACGGCACCCACCUAAGGCAAACGGUAUGGUGAAGGCAUAGUCUAGGGAGCGGCGAAAGUCACACAAACCGG [C82U A120G C150G C169U U176C]	0.0118
GUGCCUUGCGCCGGGAAACCACGCAAGGGAUGGUGUCAAAUUCGGCGAAACCUAAGCGCCCGCCCGGGCGUAUGGCAACGCUGAGCCAAGCUUCGGCGCCUGCGCCGAUGAAGGUGUAGGGACUAGACGGCACCCACCUAAGGCAAACGGUAUGGUGAAGGCAUAGUCUAGGGAGAGGCGAAAGUCACACAAACCGG [C82U A120G C150G C169U U176A]	0.0125
GUGCCUUGCGCCGGGAAACCACGCAAGGGAUGGUGUCAAAUUCGGCGAAACCUAAGCGCCCGCCCGGGCGUAUGGCAACGCUGAGCCAAGCUUCGGCGCCUGCGCCGAUGAAGGUGUAGGGACUAGACGGCACCCACCUAAGGCAAACGUUAUGGUGAAGGCAUAGUCAAGGGAGUGGCGAAAGUCACACAAACCGG [C82U A120G C150U C169A]	0.0144
GUGCCUUGCGCCGGGAAACCACGCAAGGGAUGGUGUCAAAUUCGGCGAAACCUAAGCGCCCGCCCGGGCGUAUGGCAACGCUGAGCCAAGCUUCGGCGCCUGCGCCGAUGAAGGUGUAGGGACUAGACGGCACCCACCUAAGGCAAACGUUAUGGUGAAGGCAUAGUCGAGGGAGUGGCGAAAGUCACACAAACCGG [C82U A120G C150U C169G]	0.0167
GUGCCUUGCGCCGGGAAACCACGCAAGGGAUGGUGUCAAAUUCGGCGAAACCUAAGCGCCCGCCCGGGCGUAUGGCAACGCUGAGCCAAGCUUCGGCGCCUGCGCCGAUGAAGGUGUAGGGACUAGACGGCACCCACCUAAGGCAAACGUUAUGGUGAAGGCAUAGUCGAGGGAGCGGCGAAAGUCACACAAACCGG [C82U A120G C150U C169G U176C]	0.0189
GUGCCUUGCGCCGGGAAACCACGCAAGGGAUGGUGUCAAAUUCGGCGAAACCUAAGCGCCCGCCCGGGCGUAUGGCAACGCUGAGCCAAGCUUCGGCGCCUGCGCCGAUGAAGGUGUAGGGACUAGACGGCACCCACCUAAGGCAAACGUUAUGGUGAAGGCAUAGUCGAGGGAGGGGCGAAAGUCACACAAACCGG [C82U A120G C150U C169G U176G]	0.00429
GUGCCUUGCGCCGGGAAACCACGCAAGGGAUGGUGUCAAAUUCGGCGAAACCUAAGCGCCCGCCCGGGCGUAUGGCAACGCUGAGCCAAGCUUCGGCGCCUGCGCCGAUGAAGGUGUAGGGACUAGACGGCACCCACCUAAGGCAAACGUUAUGGUGAAGGCAUAGUCGAGGGAGAGGCGAAAGUCACACAAACCGG [C82U A120G C150U C169G U176A]	0.015
GUGCCUUGCGCCGGGAAACCACGCAAGGGAUGGUGUCAAAUUCGGCGAAACCUAAGCGCCCGCCCGGGCGUAUGGCAACGCUGAGCCAAGCUUCGGCGCCUGCGCCGAUGAAGGUGUAGGGACUAGACGGCACCCACCUAAGGCAAACGUUAUGGUGAAGGCAUAGUCAAGGGAGCGGCGAAAGUCACACAAACCGG [C82U A120G C150U C169A U176C]	0.014
GUGCCUUGCGCCGGGAAACCACGCAAGGGAUGGUGUCAAAUUCGGCGAAACCUAAGCGCCCGCCCGGGCGUAUGGCAACGCUGAGCCAAGCUUCGGCGCCUGCGCCGAUGAAGGUGUAGGGACUAGACGGCACCCACCUAAGGCAAACGUUAUGGUGAAGGCAUAGUCAAGGGAGGGGCGAAAGUCACACAAACCGG [C82U A120G C150U C169A U176G]	0.00423
GUGCCUUGCGCCGGGAAACCACGCAAGGGAUGGUGUCAAAUUCGGCGAAACCUAAGCGCCCGCCCGGGCGUAUGGCAACGCUGAGCCAAGCUUCGGCGCCUGCGCCGAUGAAGGUGUAGGGACUAGACGGCACCCACCUAAGGCAAACGUUAUGGUGAAGGCAUAGUCAAGGGAGAGGCGAAAGUCACACAAACCGG [C82U A120G C150U C169A U176A]	0.016
GUGCCUUGCGCCGGGAAACCACGCAAGGGAUGGUGUCAAAUUCGGCGAAACCUAAGCGCCCGCCCGGGCGUAUGGCAACGCUGAGCCAAGCUUCGGCGCCUGCGCCGAUGAAGGUGUAGGGACUAGACGGCACCCACCUAAGGCAAACGGUAUGGUGAAGGCAUAGUCCAGGGAGGGGCGAAAGUCACACAAACCGG [C82U A120G C150G U176G]	0.00278
GUGCCUUGCGCCGGGAAACCACGCAAGGGAUGGUGUCAAAUUCGGCGAAACCUAAGCGCCCGCCCGGGCGUAUGGCAACGCUGAGCCAAGCUUCGGCGCCUGCGCCGAUGAAGGUGUAGGGACUAGACGGCACCCACCUAAGGCAAACGGUAUGGUGAAGGCAUAGUCCAGGGAGCGGCGAAAGUCACACAAACCGG [C82U A120G C150G U176C]	0.00821
GUGCCUUGCGCCGGGAAACCACGCAAGGGAUGGUGUCAAAUUCGGCGAAACCUAAGCGCCCGCCCGGGCGUAUGGCAACGCUGAGCCAAGCUUCGGCGCCUGCGCCGAUGAAGGUGUAGGGACUAGACGGCACCCACCUAAGGCAAACGGUAUGGUGAAGGCAUAGUCCAGGGAGAGGCGAAAGUCACACAAACCGG [C82U A120G C150G U176A]	0.00577
